Measured values as given in doi:10.1101/2020.09.11.292599 (bioRxiv, 2020).
Read-outs that look alike come from different tables or passages of the source.

T1: His6-tagged 2,3-bisphosphoglycerate-independent phosphoglycerate mutase (PGAM, Slr1945) (Synechocystis sp. PCC 6803, UniProt P74507 1-532)
T1 sequence (looked up): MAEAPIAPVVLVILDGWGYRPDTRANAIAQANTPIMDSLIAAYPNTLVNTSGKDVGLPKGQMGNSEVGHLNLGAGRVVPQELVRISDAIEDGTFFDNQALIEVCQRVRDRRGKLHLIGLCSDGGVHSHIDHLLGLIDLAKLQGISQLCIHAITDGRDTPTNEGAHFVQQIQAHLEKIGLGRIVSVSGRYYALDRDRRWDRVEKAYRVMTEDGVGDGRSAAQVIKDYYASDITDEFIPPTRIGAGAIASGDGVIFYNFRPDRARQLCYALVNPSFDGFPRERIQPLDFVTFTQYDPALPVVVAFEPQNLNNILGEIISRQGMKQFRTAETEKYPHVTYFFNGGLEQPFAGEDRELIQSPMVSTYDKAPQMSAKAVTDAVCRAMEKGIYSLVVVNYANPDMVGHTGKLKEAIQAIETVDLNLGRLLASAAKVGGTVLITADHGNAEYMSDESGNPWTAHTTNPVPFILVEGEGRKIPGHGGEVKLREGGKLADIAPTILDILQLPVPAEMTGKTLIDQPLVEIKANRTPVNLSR

B1: recombinant PII, tag not stated for this experiment (natural protein, UniProt Q55247 1-112, looked up)
chain: MKKVEAIIRPFKLDEVKIALVNAGIVGMTVSEVRGFGRQKGQTERYRGSEYTVEFLQKLKIEIVVDEGQVDMVVDKLVSAARTGEIGDGKIFISPVDSVVRIRTGEKDTEAI

Legend:
SEC-MALS = target: the molecule itself; assay: SEC-MALS
[1] = target: T2, C-terminally His8-tagged PII (UniProt Q55247 1-112); assay: BLI
[2] = target: T2, C-terminally His8-tagged PII; assay: BLI; remark: listed apart in the source
[3] = target: T1, His6-tagged …; assay: BLI
[4] = target: T1, His6-tagged …; assay: BLI; remark: listed apart in the source
[5] = target: T2, C-terminally His8-tagged PII; assay: SPR
[6] = target: B1; assay: SEC-MALS

Kd [1]	Kd [2]	Kd [3]	Kd [4]	stoichiometry N [5]	stoichiometry N [6]	Binder	stoichiometry N (SEC-MALS)
						B1	3
14.1 ± 0.7 nM	37.3 ± 2.5 nM	1700 nM	459 nM			Strep-tagged PirC (Sll0944), 112 amino acid version starting at Met 53 (natural protein, Synechocystis sp. PCC 6803, UniProt P77971 53-164, looked up) MSQILDPIPNNQPSALFCCYVNATNQIQVARITNVPNWYFERVVFPGQRLVFEAVPSAQLEIHTGMMASSIISDTIPCEQLSIDPDGLAAGGFISPEKEHESEDMTSQSLVA	
				~1 PirC monomer per PII trimer	1 PirC monomer per PII trimer	recombinant PirC (Sll0944), 112 amino acid version, tag not stated for this experiment (natural protein, Synechocystis sp. PCC 6803, UniProt P77971 53-164, looked up) MSQILDPIPNNQPSALFCCYVNATNQIQVARITNVPNWYFERVVFPGQRLVFEAVPSAQLEIHTGMMASSIISDTIPCEQLSIDPDGLAAGGFISPEKEHESEDMTSQSLVA	2
